# In US8791249B2, “Nucleic acid encoding humanized c-kit antibody” (Amgen Inc., priority 2006, dated 2014):
# “And” between values parts separate entries of the source, which are not always exact repeats. Equal values may be shown once. “Also recorded” adds a separate entry of the source.
# Columns and labels:
# c-Kit dimer = test: Biacore binding to c-Kit dimer versus soluble monomer; set-up: species or system human
# Excerpt: Activation of c-Kit upon binding by stem cell factor (SCF) leads to dimerization/oligomerization, autophosphorylation and receptor internalization, most likely through a clathrin-dependent pathway. The SR-1 monoclonal antibody binds the c-Kit dimer with 1000-fold higher affinity compared to the soluble c-Kit extra-cellular domain monomer as determined by Biacore.
# Carbohydrates present on a glycoprotein can influence biological and functional properties. […] This is an important characteristic not predicted to be translated with certainty with the humanization and as the soluble c-Kit monomer is less likely to act as a sink for the antibody in vivo.
# c-Kit in MO7e cells = test: SCF-mediated c-Kit phosphorylation and internalization in MO7e cells; assay type: cell-based
# [1] = test system: human CD34+, CD 117+ (c-Kit) bone marrow cells; test: CD34+ bone marrow cell CFU assay (SCF/GM-CSF colony formation), human; assay type: cell-based
# Procedure: (§1) The SR-1 monoclonal antibody was selected based on its equivalent functional potency at human and monkey c-Kit in the CD34+ bone marrow cell CFU assay (inhibition at 1.0 ug/mL), and its monkey PK.
# [2] = test system: Cultured human mast cells derived from bone marrow CD34+ cells; test: Cultured human mast cell assays (survival, c-Kit phosphorylation, aggregation); assay type: cell-based
# [3] = test system: U-937 cells expressing Fcγ receptor I=CD64, Fcγ receptor II=CD32 and Fcγ receptor III=CD16; test: Non-specific FcR binding to U-937 cells; assay type: cell-based
# Excerpt: (§2) In contrast, binding of SR-1 IgG1 and IgG4β isotypes was detected presumably to the high affinity FcγRI. […] Aglycosylated chimeric mouse/human IgG1 antibodies have been reported to […] (Hybridoma. 1991 April; 10(2):211-7) and so these desired activities of hSR-1 aIgG1 are not expected.
# [4] = Effector function (CDC, ADCC); assay type: cell-based
# Excerpt: as §2
# [5] = Exposure after repeated once-weekly dosing; assay type: in vivo, African green monkeys; conditions: preliminary exposure data
# Excerpt: Based on preliminary exposure data of SR-1 and humanized antibodies in African green monkeys after repeated once-weekly dosing, humanized antibodies achieved higher exposures compared to SR-1. […] 1992; 35(3): 165-74.
# [6] = test system: basal lung and colon mast cells; test: Depletion of basal lung and colon mast cells in monkey; assay type: in vivo
# Procedure: as §1
# […] […] For practical reasons, basal pulmonary mast cells were evaluated on day 28 at the time of necropsy and the termination of the study.
# [7] = Human dose projection (body surface area-based dose conversion); conditions: equivalent dosing regimen, preliminary estimation
# Procedure: The minimal effective dose in the wound PD model of mast cell expansion is <0.3 mg/Kg administered once weekly for 2 weeks in monkeys. Based on a body surface area-based dose conversion, the minimal effective dose in human is projected to be <0.1 mg/Kg with an equivalent dosing regiment. However, this is a preliminary estimation as the PK and the pharmacodynamic relationship between the degree and duration of c-kit inhibition in human by hSR-1 aIgG1 and clinical endpoints are unknown at this time. A more accurate projection will be made when more pharmacokinetic and pharmacodynamic data are available.
# [8] = In vivo tolerability in non-human primates; conditions: up to 30 mg/kg once weekly for 4 weeks or up to 150 mg/kg subcutaneously once weekly for 2 weeks
# [9] = Preliminary PK study after single IV or SC administration
# Procedure: A preliminary PK study was conducted to compare hSR-1 IgG2 and hSR-1 aIgG1 PK in male cynomolgus monkeys after a single IV or SC administration at 3 mg/kg.
# [10] = test system: wound activated skin mast cells; test: Wound pharmacodynamic model of mast cell expansion in monkey; conditions: for Fold UT-7 IC50 (Ctrough) / Inhibition of activated skin mast cells: day 14; for minimal effective dose in the wound PD model: once weekly for 2 weeks in monkeys; for inhibition of wound activated expansion of mast cells: 3 weeks
# c-Kit [11] = target: T1, c-Kit (Homo sapiens, UniProt P10721); test: Cell based assays of c-Kit signaling (functional potency, agonism, internalization); set-up: endogenous in cells; host or cells: MO7e cells; cultured human mast cells derived from bone marrow CD34+ cells; primary human CD34+ CD117+ bone marrow cells; UT-7 cells; conditions: all cell based assays tested
# T1 sequence (P10721 26-976): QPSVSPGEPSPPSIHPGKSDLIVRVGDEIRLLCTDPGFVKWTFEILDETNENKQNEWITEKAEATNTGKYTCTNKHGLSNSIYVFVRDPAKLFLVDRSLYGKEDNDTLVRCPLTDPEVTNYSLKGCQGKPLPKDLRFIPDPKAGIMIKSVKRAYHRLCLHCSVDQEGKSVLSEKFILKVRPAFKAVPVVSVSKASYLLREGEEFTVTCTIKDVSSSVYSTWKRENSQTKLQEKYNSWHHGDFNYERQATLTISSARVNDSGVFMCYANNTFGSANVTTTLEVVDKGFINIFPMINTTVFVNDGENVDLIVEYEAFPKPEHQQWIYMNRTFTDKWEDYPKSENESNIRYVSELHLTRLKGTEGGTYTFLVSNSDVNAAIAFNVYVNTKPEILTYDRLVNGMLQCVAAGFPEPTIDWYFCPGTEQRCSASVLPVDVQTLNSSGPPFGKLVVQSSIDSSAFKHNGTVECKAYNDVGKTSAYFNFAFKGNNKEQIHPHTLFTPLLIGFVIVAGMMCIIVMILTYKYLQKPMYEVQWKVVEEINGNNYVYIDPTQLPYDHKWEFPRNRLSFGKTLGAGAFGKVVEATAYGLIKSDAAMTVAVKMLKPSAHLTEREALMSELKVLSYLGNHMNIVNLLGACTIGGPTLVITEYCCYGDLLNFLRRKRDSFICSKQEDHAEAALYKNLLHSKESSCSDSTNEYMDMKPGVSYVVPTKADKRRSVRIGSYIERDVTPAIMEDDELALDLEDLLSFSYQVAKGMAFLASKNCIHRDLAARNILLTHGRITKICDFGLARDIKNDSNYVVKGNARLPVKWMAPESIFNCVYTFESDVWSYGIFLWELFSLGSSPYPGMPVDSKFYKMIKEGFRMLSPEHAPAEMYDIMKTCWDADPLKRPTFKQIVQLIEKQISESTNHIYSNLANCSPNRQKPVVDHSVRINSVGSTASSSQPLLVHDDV
# Excerpt: These properties are potentially undesirable since the aim of a therapeutic strategy is to apoptotically deplete mast cells and precurors by blocking the survival SCF signal and to avoid mast cell activation that could lead to anaphylactoid reactions in vivo. When the mouse SR-1 CDR regions were inserted in the human IgG1 framework, affinity and functional potency were also maintained, but this background is less desirable due to the complement activation and cell mediated cytotoxicity often found with this isotype of antibody.
# The aglycosylated IgG1 isotype was chosen to avoid effector function and cell killing through bystander effects. […] It also depletes mast cells in vivo as expected.
# monkey c-Kit = test: CD34+ bone marrow cell CFU assay, monkey; assay type: cell-based; conditions: 1.0 ug/mL
# Procedure: as §1
# hematopoiesis = test: Hematopoiesis in SR-1 dose-ranging study; assay type: in vivo, African green monkey
# Procedure: (§3) SR-1 was used in dose-ranging studies from 3 to 30 mg/Kg administered once weekly for 4 weeks to determine the exposures required to inhibit hematopoiesis, spermatogenesis and active melanogenesis. A full blood panel including cell differentials was performed on blood samples taken at baseline, day 4, 7, 14, 21 and 28 after the start of the study. Analysis of freshly isolated blood samples was performed at the Queen Elizabeth Hospital Clinical Hematology lab, Barbados.
# (§4) The effect of 3-30 mpk administered once weekly for 4 weeks on melanogenesis was also examined since there may be utility in melanoma. To assess the effects on activated melanocytes which may better reflect a disease state, hair was depilated to activate melanogenesis. […] In the 10 mg/Kg cohort, SR-1 exposures were >8000-fold the UT-7 IC50.
# melanocytes = test: Melanogenesis (hair pigmentation after depilation) in dose-ranging study; assay type: in vivo, monkeys
# Procedure: as §3, §4
# spermatogenesis = test: Spermatogenesis in dose-ranging study; assay type: in vivo, monkey
# c-Kit [12] = target: T1, c-Kit; set-up: endogenous in cells; host or cells: MO7e cells; cultured human mast cells derived from bone marrow CD34+ cells; primary human CD34+ CD117+ bone marrow cells; UT-7 cells; conditions: Broudy, J Cell Physiol. 1994; cited from earlier work
# [13] = IV, 3 mg/kg, male cynomolgus monkeys
# [14] = SC, 3 mg/kg, male cynomolgus monkeys
# Chain of c-Kit dimer (P10721 26-509 limits assumed): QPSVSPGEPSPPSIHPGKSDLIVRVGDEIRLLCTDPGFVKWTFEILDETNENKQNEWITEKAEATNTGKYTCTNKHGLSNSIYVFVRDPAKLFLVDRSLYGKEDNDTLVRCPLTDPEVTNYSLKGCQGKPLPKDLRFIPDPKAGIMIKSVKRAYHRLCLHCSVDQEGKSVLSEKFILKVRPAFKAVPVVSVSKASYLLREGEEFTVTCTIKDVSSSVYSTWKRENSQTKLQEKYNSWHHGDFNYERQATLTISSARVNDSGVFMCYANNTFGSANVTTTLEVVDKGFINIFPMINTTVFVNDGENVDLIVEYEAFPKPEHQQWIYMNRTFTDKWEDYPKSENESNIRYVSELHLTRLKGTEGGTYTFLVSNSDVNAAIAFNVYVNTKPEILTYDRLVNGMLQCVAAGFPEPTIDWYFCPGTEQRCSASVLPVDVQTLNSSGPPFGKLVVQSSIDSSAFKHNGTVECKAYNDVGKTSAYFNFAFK
molecule,measurement,setting,value
"hSR-1 aIgG1: Humanized anti-c-Kit aglycosylated IgG1 antibody; kappa light chain SEQ ID NO: 2, heavy chain SEQ ID NO: 4",binding to receptor dimer / membrane c-Kit versus monomer / soluble c-Kit,c-Kit dimer,higher affinity to the membrane c-Kit compared to soluble c-kit; also recorded: high affinity to the receptor dimer versus monomer
same,inhibition of SCF-mediated c-Kit phosphorylation and internalization,c-Kit in MO7e cells,potently inhibited
same,agonism in c-Kit receptor proximal phosphorylation read-out,c-Kit in MO7e cells; antibody alone,no evidence of agonism
same,survival relative to baseline,[1],inhibit survival below baseline
same,neutralization of the synergistic effect of SCF on GM-CSF derived colony formation,[1]; 1.0 ug/mL,neutralization
same,intrinsic agonistic survival activity,[1]; up to 10 ug/mL,no intrinsic agonistic survival activity
same,homotypic mast cell aggregation / clustering,[2],no ability to mediate homotypic mast cell aggregation
same,inhibition of SCF-dependent mast cell survival,[2],inhibited
same,c-Kit receptor phosphorylation mediated by the antibody,[2]; FIG. 3,did not mediate
same,survival signal conferred to mast cells (agonist activity),[2]; antibody alone,conferred no survival signal
same,non-specific FcR binding,[3],no detectable
same,complement dependent cytotoxic cell death,[4],no complement dependent cytotoxic cell death
same,ADCC activity,[4]; predicted from lack of FcR binding,no ADCC activity
same,exposure compared within group,[5],equal best in group PK
same,Depletion of basal colon mast cells,"[6]; 0.3 mg/kg once weekly, day 14",no efficacy; also recorded: No effect
same,Depletion of basal colon mast cells,"[6]; 1.0 mg/kg once weekly, day 14",>65%
same,Depletion of basal colon mast cells,"[6]; 3.0 mg/kg once weekly, day 14",>95%
same,projected minimal effective dose in human,[7],< 0.1 mg/kg
same,abnormalities on in vivo dosing,[8],No unexpected abnormalities
same,AUC0-tlast,[9]; [13],9710 µg·h/mL
same,C0,[9]; [13],103 µg/mL
same,CL,"[9]; IV, 3 mg/kg, calculated based on AUC0-tlast",≦0.309 mL/hr/kg
same,AUC0-tlast,[9]; [14],7970 µg·h/mL
same,Cmax,[9]; [14],36.4 µg/mL
same,Tmax,[9]; [14],72 h
same,PK time profile,[9]; single IV or SC 3 mg/kg,non-linear PK
same,Fold UT-7 IC50 (Ctrough),[10]; 0.3 mg/kg once weekly,>200 fold
same,Fold UT-7 IC50 (Ctrough),[10]; 1.0 mg/kg once weekly,>2000 fold
same,Inhibition of activated skin mast cells,[10]; 1.0 mg/kg once weekly,>95%
same,Fold UT-7 IC50 (Ctrough),[10]; 3.0 mg/kg once weekly,>7000 fold
same,Inhibition of activated skin mast cells,[10]; 3.0 mg/kg once weekly,>95%
same,minimal effective dose in the wound PD model,[10],< 0.3 mg/kg
same,antagonism of SCF,c-Kit [11],highly potent neutral antagonist
same,agonism of c-Kit,c-Kit [11]; proximal and distal read-outs,no agonism
"SR-1: Murine anti-human c-Kit antibody; light chain SEQ ID NO: 8, muIgG2a heavy chain SEQ ID NO: 10 (antibody, listed as Homo sapiens) heavy: MGWSCIILFLVATATGVHSQVQLQQPGAELVKPGASVKMSCKASGYTFTSYNMHWVKQTPGQGLEWIGVIYSGNGDTSYNQKFKGKATLTADKSSSTAYMQINSLTSEDSAVYYCARERDTRFGNWGQGTLVTVSAAKTTAPSVYPLAPVCGDTTGSSVTLGCLVKGYFPEPVTLTWNSGSLSSGVHTFPAVLQSDLYTLSSSVTVTSSTWPSQSITCNVAHPASSTKVDKKIEPRGPTIKPCPPCKCPAPNLLGGPSVFIFPPKIKDVLMISLSPIVTCVVVDVSEDDPDVQISWFVNNVEVHTAQTQTHREDYNSTLRVVSALPIQHQDWMSGKEFKCKVNNKDLPAPIERTISKPKGSVRAPQVYVLPPPEEEMTKKQVTLTCMVTDFMPEDIYVEWTNNGKTELNYKNTEPVLDSDGSYFMYSKLRVEKKNWVERNSYSCSVVHEGLHNHHTTKSFSRTPGK light: METDTLLLWVLLLWVPGSTGNIVLTQSPASLAVSLGLRATISCRASESVDIYGNSFMHWYQQKPGQPPKLLIYLASNLESGVPARFSGSGSRTDFTLTIDPVEADDAATYYCQQNNEDPYTFGGGTKLEIKRADAAPTVSIFPPSSEQLTSGGASVVCFLNNFYPKDINVKWKIDGSERQNGVLNSWTDQDSKDSTYSMSSTLTLTKDEYERHNSYTCEATHKTSTSPIVKSFNRNEC",affinity for c-Kit dimer compared to soluble c-Kit extra-cellular domain monomer,c-Kit dimer; Biacore,1000 fold
same,functional potency at human c-Kit in CFU assay,[1]; 1.0 ug/mL,inhibition
same,functional potency at monkey c-Kit in CFU assay,monkey c-Kit,inhibition
same,Ctrough PK level as fold the UT-7 cellular IC50,"[6]; 3.0 mg/Kg once weekly, basal lung mast cell depletion",> 200 fold
same,depletion of basal lung mast cells,"[6]; 3.0 mg/Kg once weekly, day 28",depletion of basal lung mast cells was observed
same,"depletion of basal colon mast cells, time course","[6]; 3 mg/Kg to 30 mg/Kg once weekly, after 2 doses by day 14",maximally depleted
same,Ctrough as fold the cell IC50 at depletion of basal mast cells,[6]; day 14,> 800 fold
same,exposure levels as fold the UT-7 IC50,hematopoiesis; 30 mg/Kg once weekly over 4 weeks,"> 70,000 fold"
same,impact on hematological parameters,"hematopoiesis; 3 to 30 mg/Kg once weekly for 4 weeks, versus control and baseline",No significant impact
same,RBCs,hematopoiesis; 4 weeks after dosing started,non-significant decreases
same,CD117 positive hematopoietic stem cells,hematopoiesis; bone marrow,no depletion
same,bone marrow histopathological analysis,"hematopoiesis; monkey, in vivo",no difference between drug treated and control cohorts
same,exposures as fold the UT-7 IC50,melanocytes; 10 mg/Kg cohort,> 8000 fold
same,pigmentation of newly regrown hair,melanocytes; 10 mg/Kg cohort,No effect
same,pigmentation of newly regrown hair,melanocytes; 30 mg/Kg dose,inhibition of hair pigmentation to variable degrees
same,normal hair color of the coat,"melanocytes; 3-30 mpk once weekly for 4 weeks, any cohort",not visibly affected
same,exposure (fold the cell IC50) required before qualitative impacts on pigmentation of newly regrown hair,"melanocytes; monkey, in vivo",> 8000 fold
same,no effect dose on hair pigmentation,melanocytes; once weekly for 4 weeks,10 to 30 mg/kg
same,effect on spermatogenesis at lowest dose,spermatogenesis; 0.3 mg/Kg once weekly,less than the maximal effect; also recorded: sub-maximal effect
same,exposure as fold the UT-7 IC50,spermatogenesis; 0.3 mg/Kg once weekly,7 fold and > 7 fold
same,inhibition of spermatogenesis,spermatogenesis; 0.3-30 mg/Kg,dose-dependent inhibition
same,recovery of spermatogenesis,"spermatogenesis; 9 months, all dosed animals",Normal spermatogenesis
same,inhibition of wound activated expansion of mast cells,[10]; 0.3 mpk dose,partial inhibition
same,inhibition of wound activated expansion of mast cells,[10]; 1 and 3 mg/Kg cohorts,maximal efficacy
same,effect on mast cells in wound activated model,[10]; FIG. 1,inhibits mast cells
same,sustained Ctrough exposure (fold the IC50) required for maximal inhibition of wound-expanded mast cells,"[10]; monkey, in vivo",> 7 fold
same,minimal effective dose in the wound PD model,[10],< 0.3 mg/kg
same,intrinsic activity at c-Kit,c-Kit [12],some agonist-like activity
